Experimental findings from US20230374114A1 (Dana-Farber, published 2023) are described below.

A value given as a limit tells only on which side of the number the result lay.

For orientation: Kd means the equilibrium constant for the complex coming apart. Low values mean a tighter complex, high ones a looser complex.

The labels stand for the following.
B1: RBD-R3-E1-F5 Ab (Ab_36) (scFv, V domains shown)
VH: QVQLQQSGPGLVKPSQTLSLTCAIFGDSVTSNSAAWNWIRQSPSRGLEWLGRTYYSSKWYNDYAVSVKSRVTINADTSKNQLSLQLNSVTPEDTAVYYCARGWLRLSFDPWGQGTLVTVSS
VL: NFMLTQPHSVSESPGKTVTISCTGSSGSIASNYVQWLQQRLGSAPTTVIYEDNQRPSGVPDRFSGSIDSSSNSASLTISGLKTEDEADYYCQSYDPNNHGVVFGGGTKLTVL
B2: S1-RBD-R3-T1-G1 Ab (Ab_35) (scFv, V domains shown)
VH: EVQLVQSGAEVKKPGESLRISCKASGYSFTSNWIGWVRQMPGKGLEWMGSIFPGDSDTKYSPSFQGQVTISADRSISTAYLQWSGLKASDTAMYYCARESYNAYGSWGQGTLVTVSS
VL: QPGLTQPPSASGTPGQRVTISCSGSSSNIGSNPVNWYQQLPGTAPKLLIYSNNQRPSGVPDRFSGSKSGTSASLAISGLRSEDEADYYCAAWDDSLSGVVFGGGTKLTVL
B3: Ab 38 (scFv, V domains shown)
VH: QVTLKESGPTLVKPTQTLTLTCTFSGFSLTTSGVSVGWIRQPPGKALEWLALIHWDDDKRYSPSLRSRLTITRDTSKNQVVLTVTDMDPADTGTYYCASFIMTVYAEYFEDWGQGTLVTVSS
VL: EIVLTQSPATLSVSPGERATLSCRASQSVSSNLAWYQQKPGQAPRLLMYDVSTRATGIPARFSGSGSGTEFSLTISSLQSEDFAVYYCQQRGAWPLTFGGGTKVEIK
B4: S1-RBD-R3-T1-F9 Ab (Ab_39) (scFv, V domains shown)
VH: QVTLKESGPTLVKPTQTLTLTCTLSGVSLDTIGMRVSWIRQPPGKALEWLARIDWDDDKFYSTALKTRLTISKDTSKNQVVFTMTSMDPVDTATYYCARSGLLYDLDVWGRGTLVTVSS
VL: QSVVTQPPSVSGAPGQRVTISCTGSDSDIGANFVQWYQQLPGTAPKLLIWRNTNRPSGVPDRFSASKSGTSASLAITGLQAEDEADYFCQSYDSSLSAYVFGGGTKVTVL
B5: S1-RBD-R3-E1-E8 Ab (Ab 37) (scFv, V domains shown)
VH: QVQLVQSGAEVKKPGASVKVSCKASGYTFTSYGISWVRQAPGQGLEWMGWISTYNGNTNYAQKLQGRVTMTTDTSTSTAYMEVRSLRSDDTAVYYCARDVFGHFDYWGQGTLVTVSS
VL: NFMLTQPHSVSESPGKTVLISCTRSSGNIATNYVQWYQQRPGSAPTTVIYEDNQRPSGVPDRFSGSIDSSSNSASLTISGLKTEDEADYYCKSYDDGNHVFGGGTKLTVL
B6: RBD-R3-E1-B3 Ab (Ab_32) (scFv, V domains shown)
VH: QVQLVQSGAEVKKPGESLKISCKGSGYSFTSYWIGWVRQMPGKGLEWMGIIYPGDSDTRYSPSFQGQVTISADKSISTAYLQWSSLKASDTAMYYCARGWQWHDYWGQGTLVTVSS
VL: QTVVTQEPAVSVALGQTVRITCQGDSLRSYYASWYQQKPGQAPVLVVYDKDKRPSGIPDRFSGSTSGNTASLTITGAQAEDEADYYCNSRDRSDNHVVFGGGTKLTVL
B7: RBD-R3-T1-H3 (Ab_2) (scFv, V domains shown)
VH: EVQLVQSGAEVKKPGSSVKVSCKTSGYTFTTSGISWVRQAPGQGLEWMGWISAYNGNTNYAQKLQGRVTMTTDTSTSTAYMELRSLRSDDTAVYYCARDFHLYYGMDVWGKGTLVTVSS
VL: QSALTQPPSASGSPGQSVTISCTGTSSDVGAYNYVSWYQQHPGKAPKLLIYDVTKRPPGVPDRFSGSKSGNTASLTVSGLQAEDEADYYCAVWDDGLNGRVVFGGGTKLTVL
B8: S1-RBD-R3-T1-D7 Ab (Ab_34) (scFv, V domains shown)
VH: QVQLVQSGVEVKKPGESLKISCKGSGYSFTSYWIGWVRQMPGKGLEWMGIIYPGDSDTRYSPSFQGQVTISADKSISTAYLQWSSLKASDTAMYYCARTTYSYGSFDYWGQGTLVTVSS
VL: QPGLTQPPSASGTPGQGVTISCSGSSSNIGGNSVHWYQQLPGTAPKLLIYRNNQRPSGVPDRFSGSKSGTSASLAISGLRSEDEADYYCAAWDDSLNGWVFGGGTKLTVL
B9: S1-RBD-R3-T1-E2 (Ab7) (scFv, V domains shown)
VH: QVQLVQSGGGLVQPGRSLRLSCAASGFTFDDYAMHWVRQVPGKGLEWVSGIDWNSGVIGYADSVKGRFTISRDNAKNSLYLQMNSLRAEDTALYYCAKDAYSYGFLGAFDIWGQGTMVTVSS
VL: QPGLTQPPSVSVAPGQTARISCGGNNIGSKSVHWYQQKPGRAPVLVVYEDRGRPSGIPERFSGSNSGNTATLTVSRVEAGDEADYYCQVWDGDSDHYVFATGTKVSIL
B10: S1-R3-T1-H7 (Ab12) (scFv, V domains shown)
VH: EVQLVESGPGVVSPSATLFLTCSVSGGSIRTHSWNWIRQPPGKPLEWIGFIHHSGATNKNPSLKSRVTISSDTSKNEFSLTLTSVTAADTAVYYCARGPGILSYWSRGTLVTVSS
VL: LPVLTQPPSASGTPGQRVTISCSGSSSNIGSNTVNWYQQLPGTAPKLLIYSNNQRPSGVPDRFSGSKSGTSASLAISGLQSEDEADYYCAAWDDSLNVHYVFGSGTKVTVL
B11: S1-RBD-R3-T1-F5 (Ab2-7) (scFv, V domains shown)
VH: QVTLKESGPTRVKPTQTLTLTCTFSGFSLSTTGVGVGWIRQPPGKALEWLALIYWNDDKRYSPSLKSRLTITKDTSKNQVVLTMTNMDPVDTATYYCARISGSGYFYPFDIWGQGTTVTVSS
VL: NFMLTQPHSVSESPGKTVTISCTRSSGSIASNYVQWYQQRPGSSPTTVIYEDNQRPSGVPDRFSGSIDSSSNSASLTISGLKAEDEADYYCQSYDSSSLWVFGGGTKLTVL
B12: RBD-R3-E1-G7 (Ab2-10) (scFv, V domains shown)
VH: EVQLVESGPGLVKPSETLSLTCTVSGGSISSYYWSWIRQPAGKGLEWIGRIYTSGSTNYNPSLKSRVTMSVDTSKNQFSLKLSSVTAADTAVYYCARDVGFGWFDRWGQGTLVTVSS
VL: NFMLTQPHSVSESPGKTVTISCTRSSGSIASNYVQWYQQRPGSSPTTVIYEDNQRPSGVPDRFSGSIDSSSNSASLTISGLTTEDEADYYCQSFDSASLWVFGGGTKLTVL
B13: Ab_13 (scFv, V domains shown)
VH: QVTLKESGPKLVKPTQTLTLTCTFSGFSLSTSGVGVGWIRQPPGKALEWLALIYWDDDKRYSPSLKSRLTIAKDTSKYQVVLTMTNMDPVDTATYYCARISGSGYFYPFDIWGQGTMVTVSA
VL: NFMLTQPHSVSESPGKTVTISCTRSSGSIASNYVQWYQQRPGSAPTTVIYEDNQRPSGVPDRFSGSIDSSSNSASLTISGLKTEDEADYYCQSYDSSNLWVFGGGTKLTVL
B14: S1-R3-T1-C4 (Ab_8) (scFv, V domains shown)
VH: QVQLVQSGAEVKKPGSSVKVSCKASGGTFSSYAISWLRQAPGQGLEWMGWINPNSGGTNYAQKFQGRVTMTRDTSISTAYMELSRLRSDDTAVYYCARGSGGYYLGWGQGTLVTVSS
VL: QPGLTQPPSVSKGLRQTATLTCTGNSNNVGNQGAAWLQQHQGHPPKLLSYMNNNRPPGISERFSASRSGNTASLTITGLQPEDEADYYCSAWDSSLSRWVFGGGTKLSVL

The target in the first assay is D614G Spike (SARS-CoV2, UniProt P0DTC2 16-1213).
Regarding B1, the Kd worked out at 7.42 pM. On the same count and under the same terms, to B2 belongs 8.69 pM.

Molecule B3 showed a Kd of 3.37 pM. Still for that read-out and setting: the value for B4 was less than 1 pM; that for B5 was 8.54 pM.

Another assay deals with D614G Spike (SARS-CoV-2, UniProt P0DTC2 16-1213).
For the molecule B6, the Kd is 7.26 pM.

In the case of B7, the Kd was found to be 167 pM. The same measure, in the same setting: to B8 belongs 9.15 pM. On the same count and under the same terms, the value for B9 was 2.74 pM.

Turning to B10, the Kd is 11.2 pM. For B11, the Kd was 9.93 pM. Still for that read-out and setting: to B12 belongs 8.87 pM; to B13, 8.1 pM; to B14, 7.3 pM.
